US12497460B2, “Anti-MSR1 antibodies and methods of use thereof” (REGENERON PHARMACEUTICALS, INC., priority 2018, dated 2025)

T1: His9-hMSR1 (human MSR1 extracellular domain) (Homo sapiens, UniProt P21757)
T1 construct: human MSR1 extracellular domain expressed with a N-terminal nonahistidine tag; His9 (nonahistidine) (N); purchased R&D Systems 2708-MS
T1 sequence (P21757 77-451 limits assumed): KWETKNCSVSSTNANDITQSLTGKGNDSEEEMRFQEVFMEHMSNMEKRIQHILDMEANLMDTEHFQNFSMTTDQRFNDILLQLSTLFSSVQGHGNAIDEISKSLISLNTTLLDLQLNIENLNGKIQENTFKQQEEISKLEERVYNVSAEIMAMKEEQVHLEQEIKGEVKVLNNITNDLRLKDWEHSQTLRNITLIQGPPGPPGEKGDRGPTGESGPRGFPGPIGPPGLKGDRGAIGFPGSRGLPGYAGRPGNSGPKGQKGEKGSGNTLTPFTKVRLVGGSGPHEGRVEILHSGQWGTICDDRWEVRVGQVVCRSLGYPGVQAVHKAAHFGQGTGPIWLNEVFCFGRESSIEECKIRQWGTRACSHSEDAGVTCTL

T2: PMA-treated THP-1 cells (endogenously expressed human MSR1) (Homo sapiens, UniProt P21757)
T2 construct: endogenous in cells; host or cells: THP-1 cells differentiated with PMA
T2 sequence (P21757 1-451): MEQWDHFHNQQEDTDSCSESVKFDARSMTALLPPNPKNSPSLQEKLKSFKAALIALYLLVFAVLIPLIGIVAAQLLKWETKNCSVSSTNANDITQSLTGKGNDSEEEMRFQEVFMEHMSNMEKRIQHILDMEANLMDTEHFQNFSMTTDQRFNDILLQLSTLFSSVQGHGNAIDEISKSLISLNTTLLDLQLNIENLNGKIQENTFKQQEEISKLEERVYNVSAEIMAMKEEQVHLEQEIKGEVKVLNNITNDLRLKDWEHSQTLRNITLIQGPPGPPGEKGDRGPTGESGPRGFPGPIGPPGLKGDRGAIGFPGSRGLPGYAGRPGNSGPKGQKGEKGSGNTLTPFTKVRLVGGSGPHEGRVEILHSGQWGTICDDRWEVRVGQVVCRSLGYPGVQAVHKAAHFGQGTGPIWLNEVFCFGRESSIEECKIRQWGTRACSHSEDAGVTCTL


How the values were obtained:
[1] = target: T1, His9-hMSR1 (human MSR1 extracellular domain); assay: Biacore surface plasmon resonance binding kinetics of anti-MSR1 mAbs, antibody-capture format; details: analyte His9-hMSR1, NB = no binding observed; for kd: * = no dissociation observed, kd manually fixed at 1.00E−05; for ka: antibody-capture format; for Kd: calculated from kinetic rates; for t½: dissociative half-life
Method: Binding affinities and kinetic constants of human anti-MSR1 antibodies for different MSR1 reagents were determined by real-time surface plasmon resonance (Biacore 4000). All binding studies were performed in 10 mM HEPES, 150 mM NaCl, 3 mM EDTA, and 0.05% v/v Surfactant Tween-20, pH 7.4 (HBS-ET) running buffer at 25° C. and 37° C.
(§1) The association rate (ka) and dissociation rate (kd) were determined by fitting the real-time binding sensorgrams to a 1:1 binding model with mass transport limitation using Scrubber 2.0c curve-fitting software. Binding dissociation equilibrium constant (KD) and dissociative half-life (t½) were calculated from the kinetic rates as: […]

[2] = system: parental HEK293 cells; assay: Electrochemiluminescence antibody binding assay, non-specific binding control cells; assay type: cell-based, human
[3] = target: T2, PMA-treated THP-1 cells (endogenously expressed human MSR1); assay: Electrochemiluminescence antibody binding assay on MSR1-expressing cells; assay type: cell-based
[4] = target: T1, His9-hMSR1 (human MSR1 extracellular domain); assay: Biacore T200 surface plasmon resonance binding kinetics of anti-MSR1 antibody-drug conjugates and parental antibodies; details: 25° C.; for ka: Table 19, antibody-LXR ADCs and unconjugated antibodies; for kd: Table 19, * = no dissociation observed, kd manually fixed at 1.00E−05
Method: The MSR1 antibodies disclosed herein were conjugated to various liver X receptor (LXR) payloads or various steroid payloads. This example describes how equilibrium dissociation constant (KD) values for human MSR1 reagents binding to human anti-MSR1 antibody-drug conjugates and their corresponding unconjugated parental antibodies were determined using a real-time surface plasmon resonance-based Biacore T200 biosensor.
All binding studies were performed in 10 mM HEPES, 300 mM NaCl, 3 mM EDTA, and 0.05% v/v Surfactant Tween-20, pH 7.4 (HBS-ET) running buffer at 25° C. The Biacore CM4 sensor chip surface was first derivatized by amine coupling with the goat anti-human Fcγ specific polyclonal antibody (Jackson ImmunoResearch Laboratories, Cat #BR-1008-39) to capture anti-MSR1 monoclonal antibodies. Binding studies were performed on human MSR1 extracellular domain expressed with a N-terminal nonahistidine tag (His9-hMSR1; R&D Systems, Cat #2708-MS).
as §1
Binding kinetics parameters for His9-hMSR1 binding to different anti-MSR1 antibody-LXR ADCs and their unconjugated parental antibodies at 25° C. are shown in Table 19. “LP1” represents a linker-payload for which the payload structure is provided in Example 11.
The binding studies were repeated with anti-MSR1 antibody H1H21234-N297Q and steroid linker payloads (LPs). “LP3” represents a linker-payload for which the structure is provided in Example 23, and “LP13” represents a linker-payload for which the structure is provided in Example 24.

kd ([1]; 25° C.) | ka ([1]; 25° C.) [M⁻¹ s⁻¹] | Kd ([1]; 25° C.) [nM] | t½ ([1]; 25° C.) [h] | kd ([1]; 37° C.) | ka ([1]; 37° C.) [M⁻¹ s⁻¹] | Kd ([1]; 37° C.) [nM] | t½ ([1]; 37° C.) [h] | Ratio of 11 nM Antibody Binding Signal (RLU) to isotype control, PMA-treated THP-1 [3] | ka [4] [M⁻¹ s⁻¹] | kd [4] | Molecule | Ratio of 11 nM Antibody Binding Signal (RLU) to isotype control, HEK293 [2]
3.79e-05 s⁻¹ | 1.14e+06 | 0.0333 | 5.08 | 1.00E−05* s^−1 | 2.73e+06 | 0.00366 | 19.25 | 6 |  |  | H1H21227N-N297D: "The 21227N antibody was also produced as a third version with a N297D mutation" (antibody, V domains shown) VH: QVQLVQSGAEVKKPGASVKVSCKVSGYTLTELSIHWVRQVPGKGLEWMGGFDPEEGETIFAQEFRDRVTLTEDTSPDTAYMELSSLKSEDAAVYYCTTPRYCNNGICYDYWGQGTLVTVSS VL: DIQMTQSPSSLSASVGDRVTITCRASQSISNYLNWYQQKPGKAPKLLIYTASSLQSGVPSRFSGSGSGTDFTLTISSLQTEDFATYYCQQSYSNFPITFGQGTRLEIKR | 1
2.24e-05 s⁻¹ | 129000 |  |  | 0.000132 s⁻¹ | 286000 |  |  | 38 | 117000 | 1e-05 s⁻¹ | H1H27731P-N297Q: one of "Twelve anti-MSR1 antibodies"; "made with an N297Q single point mutation in human Fcγ portion" (antibody, V domains shown) VH: QLQLQESGPGLVKPSETLSLTCTVSGGSISRISYYWGWIRQPPGKGLEWIGSIYDSGSTYYNPSLKSRVTISIDTSKNQFSLKLSSVTAADTAVYYCVRYSSSSAFAFDYWGQGTLVTVSS VL: DIQMTQSPSSVSASVGDRVTITCRASQGISSWLAWYQQKPGKAPKLLIYAASSLQSGVPSRFSGSGSGTDFTLTISSLQPEDFATYYCQQANSFPFTFGPGTKVDIKR | 7
1.00E−05* s^−1 | 290000 |  |  | 2.53e-05 s⁻¹ | 663000 |  |  | 66 | 200000 | 1.00E−05* s^−1 | H1H27754P-N297Q: one of "Twelve anti-MSR1 antibodies"; "made with an N297Q single point mutation in human Fcγ portion" (antibody, V domains shown) VH: EVQLVESGGGLVQPGGSLRLSCAASGFTFRTYAMTWVRQAPGKGLDWVSAITGDGGNTYYADSVKGRFTISRDNSKNTLYLQMNSLRAEDTAIYYCAKDQRFSFALYYFDYWGQGTLVTVSS VL: DIQMTQSPSSVSASVGDRVTITCRASQGISSWLAWYQQKPGNAPKLLIYAAFSLQSGVPSRFSGSGSGTDFTLTISSLQPEDFATYYCQQANNFPWTFGQGTKVEIKR | 18
